T1: FRMPD1, Q5SYB0
T1 sequence (Q5SYB0 52-145, limits assumed, looked up): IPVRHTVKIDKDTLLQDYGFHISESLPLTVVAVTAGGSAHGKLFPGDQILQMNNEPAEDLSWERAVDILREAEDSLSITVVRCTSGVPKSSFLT

T2: MPDZ_5, O75970
T2 sequence (O75970 695-796, limits assumed, looked up): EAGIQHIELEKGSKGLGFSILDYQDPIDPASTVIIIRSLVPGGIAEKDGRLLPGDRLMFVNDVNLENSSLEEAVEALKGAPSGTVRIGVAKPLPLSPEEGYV

T3: GRIP1_2, Q9Y3R0
T3 sequence (Q9Y3R0 145-248, limits assumed, looked up): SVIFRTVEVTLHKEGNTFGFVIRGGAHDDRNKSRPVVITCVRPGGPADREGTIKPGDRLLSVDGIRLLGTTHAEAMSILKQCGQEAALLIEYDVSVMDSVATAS

T4: MPDZ_12, O75970
T4 sequence (O75970 1857-1958, limits assumed, looked up): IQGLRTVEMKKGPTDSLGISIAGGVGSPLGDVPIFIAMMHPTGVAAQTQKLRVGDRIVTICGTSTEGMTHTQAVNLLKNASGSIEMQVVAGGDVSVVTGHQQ

T5: DFNB31_3, Q9P202
T5 sequence (Q9P202 811-907, limits assumed, looked up): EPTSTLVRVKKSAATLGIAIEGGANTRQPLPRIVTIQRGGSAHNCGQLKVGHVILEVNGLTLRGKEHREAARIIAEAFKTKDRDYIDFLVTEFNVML

T6: PDZD2_2, O15018
T6 sequence (O15018 329-429, limits assumed, looked up): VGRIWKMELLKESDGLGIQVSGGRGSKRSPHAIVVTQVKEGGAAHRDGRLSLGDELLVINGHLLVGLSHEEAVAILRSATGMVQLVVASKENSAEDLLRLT

T7: APBA2_1, Q99767
T7 sequence (Q99767 563-664, limits assumed, looked up): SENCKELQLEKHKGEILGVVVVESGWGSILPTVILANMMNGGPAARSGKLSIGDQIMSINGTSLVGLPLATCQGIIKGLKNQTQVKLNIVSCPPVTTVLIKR

T8: PTPN13_1, Q12923
T8 sequence (Q12923 1088-1188, limits assumed, looked up): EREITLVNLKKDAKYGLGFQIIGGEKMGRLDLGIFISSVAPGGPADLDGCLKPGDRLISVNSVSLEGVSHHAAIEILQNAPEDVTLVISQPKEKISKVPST

T9: RAPGEF6, Q8TEU7
T9 sequence (Q8TEU7 525-625, limits assumed, looked up): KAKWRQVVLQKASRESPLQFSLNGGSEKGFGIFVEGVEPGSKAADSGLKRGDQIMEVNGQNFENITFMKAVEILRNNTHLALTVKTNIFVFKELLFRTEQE

T10: DLG3_3, Q92796
T10 sequence (Q92796 374-475, limits assumed, looked up): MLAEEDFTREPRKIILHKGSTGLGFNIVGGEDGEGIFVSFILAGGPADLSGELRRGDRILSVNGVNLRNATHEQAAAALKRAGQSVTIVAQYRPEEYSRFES

T11: RHPN1, Q8TCX5
T11 sequence (Q8TCX5 508-602, limits assumed, looked up): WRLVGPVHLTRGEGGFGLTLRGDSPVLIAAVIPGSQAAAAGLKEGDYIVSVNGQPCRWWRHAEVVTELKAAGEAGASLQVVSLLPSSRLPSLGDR

T12: LNX2_3, Q8N448
T12 sequence (Q8N448 463-564, limits assumed, looked up): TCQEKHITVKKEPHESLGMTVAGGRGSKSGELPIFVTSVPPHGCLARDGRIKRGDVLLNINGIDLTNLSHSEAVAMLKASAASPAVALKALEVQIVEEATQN


What follows are binders tested against MAGI2_2, Q86UL8 (assay: holdup assay). Conditions: plain residues with an end cap or a label only (N-terminal biotin on a linker: ado-ado).
Chain of MAGI2_2, Q86UL8 (Q86UL8 410-522): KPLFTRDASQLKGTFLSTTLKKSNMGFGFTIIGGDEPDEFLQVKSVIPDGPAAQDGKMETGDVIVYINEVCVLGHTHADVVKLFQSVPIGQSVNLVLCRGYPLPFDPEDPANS
Design: key: below the threshold = too weak to quantify, mostly under pKd 3.1 to 4

pKd | Binder
4.81 | PKRSFIESNV [TANC1, Q9C0D5]
below the threshold | QMNQTLPVQV [EPHB3, P54753]

These binders were tested against T1, FRMPD1, Q5SYB0 (assay: holdup assay). Conditions: plain residues with an end cap or a label only (N-terminal biotin on a linker: ado-ado).
Design: key: below the threshold = too weak to quantify, mostly under pKd 3.1 to 4

pKd | Binder
below the threshold | PKRSFIESNV [TANC1, Q9C0D5]
below the threshold | QMNQTLPVQV [EPHB3, P54753]

Each binder was assayed against FRMPD2_3, Q68DX3 (assay: holdup assay). Conditions: plain residues with an end cap or a label only (N-terminal biotin on a linker: ado-ado).
Chain of FRMPD2_3, Q68DX3 (Q68DX3 1073-1166): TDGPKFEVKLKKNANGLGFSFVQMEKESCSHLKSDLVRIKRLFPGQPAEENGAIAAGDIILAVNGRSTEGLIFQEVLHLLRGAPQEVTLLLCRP
Design: key: below the threshold = too weak to quantify, mostly under pKd 3.1 to 4

pKd | Binder
below the threshold | PKRSFIESNV [TANC1, Q9C0D5]
below the threshold | QMNQTLPVQV [EPHB3, P54753]

What follows are binders tested against T2, MPDZ_5, O75970 (assay: holdup assay). Conditions: plain residues with an end cap or a label only (N-terminal biotin on a linker: ado-ado).
Design: key: below the threshold = too weak to quantify, mostly under pKd 3.1 to 4

pKd | Binder
below the threshold | PKRSFIESNV [TANC1, Q9C0D5]
3.84 | QMNQTLPVQV [EPHB3, P54753]

Each binder was assayed against T3, GRIP1_2, Q9Y3R0 (assay: holdup assay). Conditions: plain residues with an end cap or a label only (N-terminal biotin on a linker: ado-ado).
Design: key: below the threshold = too weak to quantify, mostly under pKd 3.1 to 4

pKd | Binder
below the threshold | PKRSFIESNV [TANC1, Q9C0D5]
3.58 | QMNQTLPVQV [EPHB3, P54753]

These binders were tested against T4, MPDZ_12, O75970 (assay: holdup assay). Conditions: plain residues with an end cap or a label only (N-terminal biotin on a linker: ado-ado).
Design: key: below the threshold = too weak to quantify, mostly under pKd 3.1 to 4

pKd | Binder
below the threshold | PKRSFIESNV [TANC1, Q9C0D5]
3.53 | QMNQTLPVQV [EPHB3, P54753]

The binders below were run against LNX1_2, Q8TBB1 (assay: holdup assay). Conditions: plain residues with an end cap or a label only (N-terminal biotin on a linker: ado-ado).
Chain of LNX1_2, Q8TBB1 (Q8TBB1 371-470): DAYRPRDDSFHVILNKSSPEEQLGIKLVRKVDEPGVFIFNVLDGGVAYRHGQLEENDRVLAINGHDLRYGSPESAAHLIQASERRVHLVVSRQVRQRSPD
Design: key: below the threshold = too weak to quantify, mostly under pKd 3.1 to 4

pKd | Binder
below the threshold | PKRSFIESNV [TANC1, Q9C0D5]
4.53 | QMNQTLPVQV [EPHB3, P54753]

The binders below were run against AHNAK1, Q09666 (assay: holdup assay). Conditions: plain residues with an end cap or a label only (N-terminal biotin on a linker: ado-ado).
Chain of AHNAK1, Q09666 (Q09666 4-100): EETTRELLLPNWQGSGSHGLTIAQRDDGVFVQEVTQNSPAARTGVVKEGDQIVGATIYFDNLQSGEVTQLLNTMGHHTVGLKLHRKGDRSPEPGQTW
Design: key: below the threshold = too weak to quantify, mostly under pKd 3.1 to 4

pKd | Binder
below the threshold | PKRSFIESNV [TANC1, Q9C0D5]
below the threshold | QMNQTLPVQV [EPHB3, P54753]

What follows are binders tested against NOS1, P29475 (assay: holdup assay). Conditions: plain residues with an end cap or a label only (N-terminal biotin on a linker: ado-ado).
Chain of NOS1, P29475 (P29475 9-101): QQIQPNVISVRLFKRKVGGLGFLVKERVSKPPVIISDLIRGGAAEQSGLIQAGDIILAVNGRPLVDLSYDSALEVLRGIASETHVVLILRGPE
Design: key: below the threshold = too weak to quantify, mostly under pKd 3.1 to 4

pKd | Binder
below the threshold | PKRSFIESNV [TANC1, Q9C0D5]
4.18 | QMNQTLPVQV [EPHB3, P54753]

These binders were tested against HTRA2, O43464 (assay: holdup assay). Conditions: plain residues with an end cap or a label only (N-terminal biotin on a linker: ado-ado).
Chain of HTRA2, O43464 (O43464 355-458): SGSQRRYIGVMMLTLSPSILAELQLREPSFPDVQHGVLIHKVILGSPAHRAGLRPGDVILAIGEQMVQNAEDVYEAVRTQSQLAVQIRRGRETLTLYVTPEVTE
Design: key: below the threshold = too weak to quantify, mostly under pKd 3.1 to 4

pKd | Binder
below the threshold | PKRSFIESNV [TANC1, Q9C0D5]
3.59 | QMNQTLPVQV [EPHB3, P54753]

These binders were tested against T5, DFNB31_3, Q9P202 (assay: holdup assay). Conditions: plain residues with an end cap or a label only (N-terminal biotin on a linker: ado-ado).
Design: key: below the threshold = too weak to quantify, mostly under pKd 3.1 to 4

pKd | Binder
below the threshold | PKRSFIESNV [TANC1, Q9C0D5]
below the threshold | QMNQTLPVQV [EPHB3, P54753]

Each binder was assayed against T6, PDZD2_2, O15018 (assay: holdup assay). Conditions: plain residues with an end cap or a label only (N-terminal biotin on a linker: ado-ado).
Design: key: below the threshold = too weak to quantify, mostly under pKd 3.1 to 4

pKd | Binder
4.81 | PKRSFIESNV [TANC1, Q9C0D5]
below the threshold | QMNQTLPVQV [EPHB3, P54753]

What follows are binders tested against T7, APBA2_1, Q99767 (assay: holdup assay). Conditions: plain residues with an end cap or a label only (N-terminal biotin on a linker: ado-ado).
Design: key: below the threshold = too weak to quantify, mostly under pKd 3.1 to 4

pKd | Binder
below the threshold | PKRSFIESNV [TANC1, Q9C0D5]
below the threshold | QMNQTLPVQV [EPHB3, P54753]

These binders were tested against SNX27, Q96L92 (assay: holdup assay). Conditions: plain residues with an end cap or a label only (N-terminal biotin on a linker: ado-ado).
Design: key: below the threshold = too weak to quantify, mostly under pKd 3.1 to 4

pKd | Binder
5.51 | PKRSFIESNV [TANC1, Q9C0D5]
3.86 | QMNQTLPVQV [EPHB3, P54753]

These binders were tested against T8, PTPN13_1, Q12923 (assay: holdup assay). Conditions: plain residues with an end cap or a label only (N-terminal biotin on a linker: ado-ado).
Design: key: below the threshold = too weak to quantify, mostly under pKd 3.1 to 4

pKd | Binder
below the threshold | PKRSFIESNV [TANC1, Q9C0D5]
below the threshold | QMNQTLPVQV [EPHB3, P54753]

Each binder was assayed against NHERF4_1, Q86UT5-2 (assay: holdup assay). Conditions: plain residues with an end cap or a label only (N-terminal biotin on a linker: ado-ado).
Chain of NHERF4_1, Q86UT5-2 (Q86UT5 other isoform, or with tags, fused parts or gaps): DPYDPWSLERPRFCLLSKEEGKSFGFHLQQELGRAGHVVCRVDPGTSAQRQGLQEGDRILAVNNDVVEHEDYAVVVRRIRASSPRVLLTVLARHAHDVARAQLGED
Design: key: below the threshold = too weak to quantify, mostly under pKd 3.1 to 4

pKd | Binder
below the threshold | PKRSFIESNV [TANC1, Q9C0D5]
below the threshold | QMNQTLPVQV [EPHB3, P54753]

These binders were tested against GRIP2_3, Q9C0E4 (assay: holdup assay). Conditions: plain residues with an end cap or a label only (N-terminal biotin on a linker: ado-ado).
Chain of GRIP2_3, Q9C0E4 (Q9C0E4 238-339): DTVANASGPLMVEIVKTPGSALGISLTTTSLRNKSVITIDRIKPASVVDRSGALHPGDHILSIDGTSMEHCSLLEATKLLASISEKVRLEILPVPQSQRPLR
Design: key: below the threshold = too weak to quantify, mostly under pKd 3.1 to 4

pKd | Binder
below the threshold | PKRSFIESNV [TANC1, Q9C0D5]
below the threshold | QMNQTLPVQV [EPHB3, P54753]

The binders below were run against Inadl_8, Q8NI35 (assay: holdup assay). Conditions: plain residues with an end cap or a label only (N-terminal biotin on a linker: ado-ado).
Chain of Inadl_8, Q8NI35 (Q8NI35 1425-1530): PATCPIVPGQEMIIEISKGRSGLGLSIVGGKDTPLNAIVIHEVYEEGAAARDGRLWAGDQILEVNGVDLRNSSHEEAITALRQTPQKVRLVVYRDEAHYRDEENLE
Design: key: below the threshold = too weak to quantify, mostly under pKd 3.1 to 4

pKd | Binder
4.15 | PKRSFIESNV [TANC1, Q9C0D5]
3.55 | QMNQTLPVQV [EPHB3, P54753]

Each binder was assayed against T9, RAPGEF6, Q8TEU7 (assay: holdup assay). Conditions: plain residues with an end cap or a label only (N-terminal biotin on a linker: ado-ado).
Design: key: below the threshold = too weak to quantify, mostly under pKd 3.1 to 4

pKd | Binder
below the threshold | PKRSFIESNV [TANC1, Q9C0D5]
below the threshold | QMNQTLPVQV [EPHB3, P54753]

What follows are binders tested against T10, DLG3_3, Q92796 (assay: holdup assay). Conditions: plain residues with an end cap or a label only (N-terminal biotin on a linker: ado-ado).
Design: key: below the threshold = too weak to quantify, mostly under pKd 3.1 to 4

pKd | Binder
4.23 | PKRSFIESNV [TANC1, Q9C0D5]
3.56 | QMNQTLPVQV [EPHB3, P54753]

Each binder was assayed against DLG2_2, Q15700 (assay: holdup assay). Conditions: plain residues with an end cap or a label only (N-terminal biotin on a linker: ado-ado).
Chain of DLG2_2, Q15700 (Q15700 189-283): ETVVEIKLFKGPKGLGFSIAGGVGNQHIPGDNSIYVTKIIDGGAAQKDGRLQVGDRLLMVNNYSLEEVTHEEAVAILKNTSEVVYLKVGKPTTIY
Design: key: below the threshold = too weak to quantify, mostly under pKd 3.1 to 4

pKd | Binder
4.72 | PKRSFIESNV [TANC1, Q9C0D5]
below the threshold | QMNQTLPVQV [EPHB3, P54753]

Each binder was assayed against T11, RHPN1, Q8TCX5 (assay: holdup assay). Conditions: plain residues with an end cap or a label only (N-terminal biotin on a linker: ado-ado).
Design: key: below the threshold = too weak to quantify, mostly under pKd 3.1 to 4

pKd | Binder
4.38 | PKRSFIESNV [TANC1, Q9C0D5]
below the threshold | QMNQTLPVQV [EPHB3, P54753]

These binders were tested against T12, LNX2_3, Q8N448 (assay: holdup assay). Conditions: plain residues with an end cap or a label only (N-terminal biotin on a linker: ado-ado).
Design: key: below the threshold = too weak to quantify, mostly under pKd 3.1 to 4

pKd | Binder
below the threshold | PKRSFIESNV [TANC1, Q9C0D5]
below the threshold | QMNQTLPVQV [EPHB3, P54753]

What follows are binders tested against GRIP2_7, Q9C0E4 (assay: holdup assay). Conditions: plain residues with an end cap or a label only (N-terminal biotin on a linker: ado-ado).
Chain of GRIP2_7, Q9C0E4 (Q9C0E4 934-1023): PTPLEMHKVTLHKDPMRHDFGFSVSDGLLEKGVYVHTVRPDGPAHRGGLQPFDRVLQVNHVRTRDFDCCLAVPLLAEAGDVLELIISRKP
Design: key: below the threshold = too weak to quantify, mostly under pKd 3.1 to 4

pKd | Binder
below the threshold | PKRSFIESNV [TANC1, Q9C0D5]
3.58 | QMNQTLPVQV [EPHB3, P54753]

Reference: publication PMC9482650, “Quantitative fragmentomics allow affinity mapping of interactomes” (Nature Communications, 2022)
